Here are results for 6 molecules from publication PMC7703624 (Proceedings of the National Academy of Sciences of the …, 2020).

Assay [1] addresses T1, ENAH EVH1 (Homo sapiens, UniProt Q8N8S7). Description: Fluorescence titration. The assay is classed as binding.
The target of assay [2] is T1, ENAH EVH1. The assay is described as follows: other fluorescence titration.
Target sequence in this assay (Q8N8S7 whole entry): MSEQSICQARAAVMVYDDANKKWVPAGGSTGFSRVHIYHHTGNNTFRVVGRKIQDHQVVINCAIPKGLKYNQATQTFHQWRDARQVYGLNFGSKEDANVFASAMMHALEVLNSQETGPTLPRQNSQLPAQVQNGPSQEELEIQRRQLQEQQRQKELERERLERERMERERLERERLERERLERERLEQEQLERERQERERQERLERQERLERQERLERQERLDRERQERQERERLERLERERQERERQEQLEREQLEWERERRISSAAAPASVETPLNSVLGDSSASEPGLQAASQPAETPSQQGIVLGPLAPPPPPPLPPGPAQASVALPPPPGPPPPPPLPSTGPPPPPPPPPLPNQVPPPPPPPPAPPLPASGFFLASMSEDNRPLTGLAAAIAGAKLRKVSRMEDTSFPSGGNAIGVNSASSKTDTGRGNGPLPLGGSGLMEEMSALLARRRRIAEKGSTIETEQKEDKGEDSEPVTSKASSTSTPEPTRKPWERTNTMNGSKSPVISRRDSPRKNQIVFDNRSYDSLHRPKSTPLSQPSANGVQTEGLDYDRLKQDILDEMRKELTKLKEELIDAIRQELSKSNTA
Another assay concerns the target Fyn SH3 (Homo sapiens, UniProt P06241). The assay is described as follows: Pulldown of GST-Fyn SH3 from Jurkat cell lysate, displacement of ADAP. The assay is classed as binding. The settings on record: Jurkat cell lysate 1 mg/ml, 50 µM active concentration.

Where a SMILES comes first, the peptide text is derived from it.

Fyn SH3, sequence (P06241 82-143 limits assumed): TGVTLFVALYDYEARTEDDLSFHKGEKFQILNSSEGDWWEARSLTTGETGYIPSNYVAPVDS

`CCOC(=O)[C@@H]1CCCN1C(=O)[C@@H]1CCCN1C(=O)[C@@H]1CCCN1C(=O)[C@@H]1CCCN1C(=O)[C@H](Cc1ccccc1)NC(C)=O` [wt1, Ac–FPPPP–OEt] (Ac-FPPPP-OEt) returned a Kd at ENAH EVH1 [1] of 153 µM.

In the assay with ENAH EVH1 [2], “2ΔC, Ac-SFE[2-Cl-Phe][ProM-2][ProM-1]-OEt (peptide)” gave a Kd of 2.9 µM.

Take Ac-RPLPPLP-NH2 [Ac–RPLPPLP −NH2]: at Fyn SH3, the “displacement of ADAP from bead-bound GST-Fyn SH3” value was “displaced ADAP”.

The molecule “chimeric peptide 2, Ac-SFE[2-Cl-Phe][ProM-2][ProM-1]TEDEL-NH2” yielded an equilibrium dissociation constant (Kd) with ENAH EVH1 [2] of 0.15 µM. This lies in the sub-micromolar range.

With “2ΔN, Ac-[2-Cl-Phe][ProM-2][ProM-1]TEDEL-NH2 (peptide)”, the Kd with ENAH EVH1 [2] was determined as 0.33 µM.

In turn, Ac-SFEFPPPPTEDEL-NH2 [wt2, Ac-…-NH2] showed a Kd in the assay with ENAH EVH1 [2] of 13 µM.
